Results taken from US20100291682, “SYSTEM FOR TRANSPOSING HYPERACTIVE RECOMBINANT DERIVATIVES OF MOS-1 TRANSPOSON” (published 2010).
Where two headings read alike, the source gives them in different places.

How the values were obtained:
[1] = molecular target: T1, MBP-Mos-1 transposase (MBP-Tnp) (Drosophila mauritiana, UniProt Q7JQ07 SEQ:1-345); experiment: EMSA; conditions: complex stability versus ITR alone; MBP tag assumed
T1 sequence: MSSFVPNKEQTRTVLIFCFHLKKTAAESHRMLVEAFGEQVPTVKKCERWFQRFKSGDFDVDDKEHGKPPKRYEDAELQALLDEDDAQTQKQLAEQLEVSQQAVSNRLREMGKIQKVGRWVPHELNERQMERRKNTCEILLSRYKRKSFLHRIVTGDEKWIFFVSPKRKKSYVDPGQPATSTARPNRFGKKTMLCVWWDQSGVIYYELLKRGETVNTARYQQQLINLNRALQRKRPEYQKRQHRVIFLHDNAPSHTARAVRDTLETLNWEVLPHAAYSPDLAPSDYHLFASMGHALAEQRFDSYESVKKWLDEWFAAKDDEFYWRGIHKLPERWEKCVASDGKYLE

[2] = molecular target: T1, MBP-Mos-1 transposase (MBP-Tnp); conditions: active protein (Bmax) versus ITR3'; same Kd as ITR3'; inventors' prior research
[3] = molecular target: T1, MBP-Mos-1 transposase (MBP-Tnp); experiment: EMSA; clone number to SEQ mapping not given; conditions: tags: N-terminal MBP (pMalC2x); chain copies: 2

ITR3'/UTR3'
binding signal [1]: 4 fold

Mos-1 ITR5'
binding signal [2]: 0.1 fold

ITR3'/UTR5'
binding signal [1]: 4 fold

B1: ITRSelex SEQ 42 (dsDNA)
DNA 1: CGATTACAATTATGAAAACTTTCCT
DNA 2: AGGAAAGTTTTCATAATTGTAATCG
binding result [3]: binds

B2: ITRSelex SEQ 44 (dsDNA)
DNA 1: ATAGTGTTTAAAGCTTACT
DNA 2: AGTAAGCTTTAAACACTAT
binding result [3]: binds

B3: ITRSelex SEQ 40 (dsDNA)
DNA 1: GCGGGTGTGAAAATATGAAATATTCACT
DNA 2: AGTGAATATTTCATATTTTCACACCCGC
binding result [3]: binds

B4: ITRSelex SEQ 41 (dsDNA)
DNA 1: GAAGAGTTATAACTCAAGAAAACTGAAT
DNA 2: ATTCAGTTTTCTTGAGTTATAACTCTTC
binding result [3]: binds

B5: ITRSelex SEQ 45 (dsDNA)
DNA 1: GTCAGTGATGTCACCAACGTATGGAATATCGTAT
DNA 2: ATACGATATTCCATACGTTGGTGACATCACTGAC
binding result [3]: binds

B6: ITRSelex SEQ 43 (dsDNA)
DNA 1: GGAGAAATGGTAGAATAGTTTA
DNA 2: TAAACTATTCTACCATTTCTCC
binding result [3]: binds
